The values that follow come from the supplement of paper PMC7877785.

± gives the uncertainty stated by the source.

A short description of the data set: self-splicing fitness, log relative to wild type (ln ratio); higher = more splicing; Tetrahymena group I intron in knt gene, E. coli kanamycin selection, DiMSum; sequences stand for … in CUCUCU…GGAGGGAAAAGUUAUCAGGCAUGCACCUGGUAGCUAGUCUUUAAACCAAUAGAUUGCAUCGGUUUAAAAGGCAAGACCGUCAAAUUGCGGGAAAGGGGUCAACAGCCGUUCAGUACCAAGUCUCAGGGGAAACUUUGAGAUGGCCUUGCAAAGGGUAUGGUAAUAAGCUGACGGACAUGGUCCUAACCACGCAGCCAAGUCCUAAGUCAACAGAUCUUCUGUUGAUAUGGAUGCAGUUCACAGACUAAAUGUCGGUCGGGGAAGAUGUAUUCUUCUCAUAAGAUAUAGUCGGACCUCUCCUUAAUGGGAGCUAGCGGAUGAAGUGAUGCAACACUGGAGCCGCUGGGAACUAAUUUGUAUGCGAAAGUAUAUUGAUUAGUUUUGGAGUACUCGUGGUCG
The essentials:
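Fitness was computed with DiMSum as the error-weighted combination of replicate fold changes, kanamycin versus none, each normalised to wild type. The library randomised all eight intron nucleotides of the P1ex region, with the intron placed in the knt kanamycin-resistance gene on pET-22b(+) in E. coli BL21(DE3). Six replicate transformations were grown overnight at 37°C or 30°C on LB agar with or without 25 μg/mL kanamycin, plus 100 μg/mL carbenicillin, 50 μM IPTG and 0.2% rhamnose. Pooled colonies were amplicon-sequenced on an Illumina HiSeq 2500.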

On to GGCUAGCAAUAUUACGAUUG, for which the “self-splicing fitness (ln)” value reads like this: (30 °C) -1.67 ± 0.12; (37 °C) -1.47 ± 0.13.
For GAAUAGCAAUAUUACGGCAA the same measures were -0.403 ± 0.14 and -0.118 ± 0.14.
For AUGGAGCAAUAUUACGCUAU the same measures were -3.89 ± 0.15 and -2.4 ± 0.22.
For GAUCAGCAAUAUUACGACAA, in that order: -0.267 ± 0.081 and -0.396 ± 0.089.
Turning to AGAUAGCAAUAUUACGUGUG, the “self-splicing fitness (ln)” value runs as follows: (30 °C) -2.48 ± 0.097; (37 °C) -0.626 ± 0.098.
Consider AGGAAGCAAUAUUACGCAUC, for which, under “37 °C”, the “self-splicing fitness (ln)” value is -1.85 ± 0.41.
As to CCAAAGCAAUAUUACGCGGC, the “self-splicing fitness (ln)” value (30 °C) is -3.34 ± 0.18 and the “self-splicing fitness (ln)” value (37 °C) is -3.15 ± 0.32.
Take CAAAAGCAAUAUUACGAUUC: the “self-splicing fitness (ln)” value runs as follows: (30 °C) -2.41 ± 0.11; (37 °C) -0.98 ± 0.089.
For CGACAGCAAUAUUACGGGAA the same measures were -3.44 ± 0.17 and -1.92 ± 0.099.
As for CGCCAGCAAUAUUACGAUGA, the “self-splicing fitness (ln)” value runs as follows: (30 °C) -2.2 ± 0.12; (37 °C) -1.48 ± 0.13.
Take AUUAAGCAAUAUUACGCGAU: the “self-splicing fitness (ln)” value is -3.33 ± 0.23 (30 °C) and -2.63 ± 0.34 (37 °C).
For UCACAGCAAUAUUACGAACC the same measures were -1.05 ± 0.33 and -1.68 ± 0.34.
For GAGCAGCAAUAUUACGAAUA, in that order: -2.87 ± 0.37 and -1.8 ± 0.24.
For GAUAAGCAAUAUUACGAGGG the same measures were -4.01 ± 0.39 and -2.19 ± 0.24.
On to ACCCAGCAAUAUUACGCAUC, for which the “self-splicing fitness (ln)” value is -1.33 ± 0.076 (30 °C) and 0.0782 ± 0.098 (37 °C).
For CGUAAGCAAUAUUACGGUCU the same measures were -2.56 ± 0.092 and -1.46 ± 0.081.
For AACUAGCAAUAUUACGAAGA, in that order: -2.62 ± 0.14 and -1.05 ± 0.12.
Consider CCAGAGCAAUAUUACGACCG, for which the “self-splicing fitness (ln)” value is, setting by setting: (30 °C) -0.53 ± 0.14; (37 °C) -0.622 ± 0.22.
With GCGAAGCAAUAUUACGUUAC, the “self-splicing fitness (ln)” value (37 °C) is -2.72 ± 0.43.
On to GAGCAGCAAUAUUACGCCUA, for which the “self-splicing fitness (ln)” value (30 °C) was -0.758 ± 0.064 and the “self-splicing fitness (ln)” value (37 °C) amounted to 0.0984 ± 0.085.
On to AAAGAGCAAUAUUACGAGAA, for which the “self-splicing fitness (ln)” value (30 °C) is -2.11 ± 0.46.
Consider UAUUAGCAAUAUUACGACCC, for which the “self-splicing fitness (ln)” value runs as follows: (30 °C) -3.2 ± 0.38; (37 °C) -0.71 ± 0.33.
On to UCGGAGCAAUAUUACGGUUU, for which the “self-splicing fitness (ln)” value (37 °C) was -1.87 ± 0.34.
Regarding ACCCAGCAAUAUUACGUGAC, the “self-splicing fitness (ln)” value is, setting by setting: (30 °C) -1.07 ± 0.047; (37 °C) -1.25 ± 0.085.
Regarding CCUUAGCAAUAUUACGAGCC, the “self-splicing fitness (ln)” value (30 °C) is -3.38 ± 0.34.
As to GCAAAGCAAUAUUACGUGGG, the “self-splicing fitness (ln)” value (30 °C) was -3.38 ± 0.15 and the “self-splicing fitness (ln)” value (37 °C) is -3.07 ± 0.16.
As to CCACAGCAAUAUUACGCUUC, under “30 °C”, the “self-splicing fitness (ln)” value was -3.25 ± 0.47.
With GUCUAGCAAUAUUACGACAU, the “self-splicing fitness (ln)” value reads like this: (30 °C) -0.643 ± 0.014; (37 °C) -0.146 ± 0.032.
For CCCCAGCAAUAUUACGCCAC, in that order: -3.09 ± 0.13 and -0.923 ± 0.16.
Regarding UAGGAGCAAUAUUACGGUUU, the “self-splicing fitness (ln)” value by setting is: (30 °C) -3.54 ± 0.3; (37 °C) -3.45 ± 0.39.
For UCUGAGCAAUAUUACGUCGG, in that order: -0.746 ± 0.093 and -0.184 ± 0.12.
CGCUAGCAAUAUUACGUAUU: the “self-splicing fitness (ln)” value (30 °C) is -3.85 ± 0.21 and the “self-splicing fitness (ln)” value (37 °C) is -1.9 ± 0.18.
For CAAUAGCAAUAUUACGUGCC, in that order: -2.98 ± 0.26 and -3.02 ± 0.32.
For CCCUAGCAAUAUUACGCUGG the same measures were -4.39 ± 0.27 and -2.89 ± 0.27.
Consider CCCCAGCAAUAUUACGUGGG, for which the “self-splicing fitness (ln)” value is, setting by setting: (30 °C) -3.83 ± 0.12; (37 °C) -2.81 ± 0.14.
For CCGGAGCAAUAUUACGUGUA the same measures were -2.99 ± 0.2 and -2.61 ± 0.25.
For UGUUAGCAAUAUUACGGCUA, in that order: -1.01 ± 0.19 and 0.14 ± 0.19.
For AAAUAGCAAUAUUACGACAA the same measures were -0.727 ± 0.1 and -0.284 ± 0.1.
For the sequence AGACAGCAAUAUUACGGUGC, the “self-splicing fitness (ln)” value was -2.82 ± 0.18 (30 °C) and -1.89 ± 0.18 (37 °C).
For AGGGAGCAAUAUUACGCGUC, in that order: -3.15 ± 0.29 and -2.51 ± 0.37.
